Target: purified recombinant SD1/2 protein
Assay: ITC; peptide (300 μM in the syringe) injected into SD1/2 protein (30 μM) in the cell; 25°C; 20 mM NaPi (pH 6.8), 50 mM NaCl, 0.5 mM EDTA; one-site binding model

| Binder | Kd | stoichiometry N |
| --- | --- | --- |
| Ac-DDSDVWWGGADTDYADG-NH2 [APP17] | 543 nM | 1.05 |
| Ac-DWGADTVSGDGYDAWDD-NH2 [sc-APP17] | > 300000 nM |  |
